System: Escherichia coli TOP10
Experiment: shrunken log2 fold change of peptide-encoding DNA abundance (4.5 h post-induction vs induction); higher = less antimicrobial activity (less host growth inhibition)
Conditions: time post-induction: 4.5 h; library: site-saturation at positions 5, 18, 19, 20
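Further: peptides expressed intracellularly from a pBAD plasmid library in pooled LB shake-flask culture, induced with 0.3% L-arabinose, DNA abundance read by NGS, three biological replicates, DESeq2 with apeglm shrinkage.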

Sequence | shrunken log2 fold change
RRIRMRPPRLPRPRPRPGYCPRP | 0.0615
RRIRARPPRLPRPRPRPPMFPRP | 0.283
RRIRKRPPRLPRPRPRPLVQPRP | 0.459
RRIRDRPPRLPRPRPRPEGPPRP | 1.51
RRIRGRPPRLPRPRPRPNFIPRP | -0.00471
RRIRRRPPRLPRPRPRPPYSPRP | 0.122
RRIRPRPPRLPRPRPRPTKFPRP | -0.0516
RRIRPRPPRLPRPRPRPSFCPRP | 0.0813
RRIRERPPRLPRPRPRPMKHPRP | -0.794
RRIRYRPPRLPRPRPRPACVPRP | -0.351
RRIRNRPPRLPRPRPRPYFAPRP | -0.198
RRIRGRPPRLPRPRPRPNFAPRP | 0.569
RRIRVRPPRLPRPRPRPGGQPRP | -0.0141
RRIRIRPPRLPRPRPRPIYVPRP | -0.24
RRIRKRPPRLPRPRPRPCKCPRP | 0.0183
RRIRSRPPRLPRPRPRPIMNPRP | -0.0954
RRIRKRPPRLPRPRPRPRNHPRP | 0.197
RRIRQRPPRLPRPRPRPASHPRP | 0.189
RRIRIRPPRLPRPRPRPQLIPRP | -0.146
RRIRVRPPRLPRPRPRPWHCPRP | -0.0339
RRIRERPPRLPRPRPRPNNFPRP | -0.0786
RRIRKRPPRLPRPRPRPFKYPRP | -0.517
RRIRDRPPRLPRPRPRPFSQPRP | -0.172
RRIRSRPPRLPRPRPRPRCSPRP | 0.0579
RRIRMRPPRLPRPRPRPAWTPRP | 0.08

Sequence | shrunken log2 fold change
RRIRYRPPRLPRPRPRPCHHPRP | -0.12
RRIRDRPPRLPRPRPRPNKMPRP | -0.195
RRIRFRPPRLPRPRPRPPYTPRP | -0.419
RRIRNRPPRLPRPRPRPKHWPRP | 0.0916
RRIRIRPPRLPRPRPRPEPCPRP | -0.057
RRIRTRPPRLPRPRPRPWTAPRP | -0.124
RRIRFRPPRLPRPRPRPIWRPRP | 0.248
RRIRVRPPRLPRPRPRPQEKPRP | 0.0369
RRIRCRPPRLPRPRPRPWMAPRP | -0.333
RRIRPRPPRLPRPRPRPQSMPRP | -0.609
RRIRCRPPRLPRPRPRPKQKPRP | 0.0322
RRIRGRPPRLPRPRPRPDPCPRP | 0.624
RRIRARPPRLPRPRPRPAIDPRP | 0.387
RRIRHRPPRLPRPRPRPILYPRP | -0.123
RRIRVRPPRLPRPRPRPGPAPRP | 0.407
RRIRERPPRLPRPRPRPFHDPRP | -0.291
RRIRMRPPRLPRPRPRPCYDPRP | 0.0509
RRIRCRPPRLPRPRPRPECFPRP | 0.165
RRIRRRPPRLPRPRPRPGTEPRP | 0.443
RRIRDRPPRLPRPRPRPEYYPRP | -0.00627
RRIRERPPRLPRPRPRPVFVPRP | -0.178
RRIRWRPPRLPRPRPRPFVHPRP | -0.423
RRIRVRPPRLPRPRPRPIFFPRP | 0.125
RRIRERPPRLPRPRPRPPGGPRP | 0.56
RRIRHRPPRLPRPRPRPCREPRP | 0.0163

Sequence | shrunken log2 fold change
RRIRHRPPRLPRPRPRPWPHPRP | -0.0305
RRIRFRPPRLPRPRPRPTGSPRP | -0.103
RRIRDRPPRLPRPRPRPSFNPRP | -0.68
RRIRPRPPRLPRPRPRPTHHPRP | 0.264
RRIRMRPPRLPRPRPRPKSFPRP | -0.015
RRIRRRPPRLPRPRPRPPDTPRP | 0.436
RRIRYRPPRLPRPRPRPKCFPRP | -0.0925
RRIRPRPPRLPRPRPRPNDKPRP | -0.52
RRIRVRPPRLPRPRPRPICKPRP | -0.149
RRIRPRPPRLPRPRPRPWMRPRP | 0.715
RRIRNRPPRLPRPRPRPDCMPRP | 0.113
RRIRTRPPRLPRPRPRPADFPRP | 0.0361
RRIRMRPPRLPRPRPRPSLYPRP | -0.126
RRIRSRPPRLPRPRPRPEFHPRP | -0.162
RRIRVRPPRLPRPRPRPRLEPRP | 0.138
RRIRQRPPRLPRPRPRPLFNPRP | -0.367
RRIRLRPPRLPRPRPRPKEVPRP | -0.147
RRIRRRPPRLPRPRPRPLCNPRP | 0.0189
RRIRFRPPRLPRPRPRPAFGPRP | 0.21
RRIRMRPPRLPRPRPRPWFSPRP | -0.0415
RRIRCRPPRLPRPRPRPWFWPRP | 0.189
RRIRDRPPRLPRPRPRPAKIPRP | -0.00511
RRIRMRPPRLPRPRPRPWIIPRP | -0.0943
RRIRIRPPRLPRPRPRPVHAPRP | 0.0769
RRIRCRPPRLPRPRPRPVTKPRP | 0.217

Sequence | shrunken log2 fold change
RRIRFRPPRLPRPRPRPSHTPRP | -0.035
RRIRCRPPRLPRPRPRPKLEPRP | -0.125
RRIRFRPPRLPRPRPRPMHVPRP | -0.0102
RRIRIRPPRLPRPRPRPMSSPRP | -0.215
RRIRVRPPRLPRPRPRPHSTPRP | -0.418
RRIRFRPPRLPRPRPRPMHHPRP | -0.449
RRIRVRPPRLPRPRPRPKILPRP | -0.0923
RRIRARPPRLPRPRPRPDVDPRP | 1.1
RRIRPRPPRLPRPRPRPAKCPRP | -0.172
RRIRYRPPRLPRPRPRPTIHPRP | -1.2
RRIRGRPPRLPRPRPRPLSDPRP | 0.365
RRIRIRPPRLPRPRPRPSPFPRP | -0.81
RRIRRRPPRLPRPRPRPQTEPRP | -0.0572
RRIRCRPPRLPRPRPRPGTLPRP | -0.237
RRIRARPPRLPRPRPRPQFNPRP | -0.0606
RRIRIRPPRLPRPRPRPRDEPRP | 0.27
RRIRSRPPRLPRPRPRPYMMPRP | -0.36
RRIRIRPPRLPRPRPRPWNHPRP | 0.0112
RRIRKRPPRLPRPRPRPPRNPRP | 0.671
RRIRIRPPRLPRPRPRPIANPRP | -0.0104
RRIRVRPPRLPRPRPRPTLDPRP | 0.125
RRIRSRPPRLPRPRPRPMNMPRP | -0.118
RRIRARPPRLPRPRPRPKEDPRP | 0.133
RRIRSRPPRLPRPRPRPYFRPRP | -0.853
RRIRVRPPRLPRPRPRPPRKPRP | 0.482

Sequence | shrunken log2 fold change
RRIRTRPPRLPRPRPRPWRQPRP | 0.0481
RRIRKRPPRLPRPRPRPDCPPRP | 0.178
RRIRKRPPRLPRPRPRPALYPRP | 0.453
RRIRSRPPRLPRPRPRPSAGPRP | 0.191
RRIRDRPPRLPRPRPRPELWPRP | 2.17
RRIRMRPPRLPRPRPRPTGLPRP | 0.961
RRIRHRPPRLPRPRPRPFVKPRP | -1.48
RRIRWRPPRLPRPRPRPLQSPRP | 0.153
RRIRCRPPRLPRPRPRPEQLPRP | 0.407
RRIRHRPPRLPRPRPRPWTVPRP | -0.217
RRIRDRPPRLPRPRPRPPTCPRP | 0.0486
RRIRLRPPRLPRPRPRPAMEPRP | -0.0355
RRIRYRPPRLPRPRPRPYNPPRP | -0.256
RRIRGRPPRLPRPRPRPRCNPRP | 0.551
RRIRTRPPRLPRPRPRPTRKPRP | 0.443
RRIRPRPPRLPRPRPRPAWCPRP | 0.252
RRIRERPPRLPRPRPRPIMAPRP | -1.15
RRIRTRPPRLPRPRPRPCNVPRP | -0.00968
RRIRFRPPRLPRPRPRPNEMPRP | -0.0729
RRIRCRPPRLPRPRPRPKWGPRP | 0.496
RRIRFRPPRLPRPRPRPIVYPRP | -0.181
RRIRRRPPRLPRPRPRPIEPPRP | -0.015
RRIRKRPPRLPRPRPRPHMWPRP | -0.174
RRIRKRPPRLPRPRPRPNLFPRP | 0.00721
RRIRYRPPRLPRPRPRPVAKPRP | -0.128

— the supplement of paper PMC9112550, “Optimization of the antimicrobial peptide Bac7 by deep mutational scanning” (BMC Biology, 2022)
